Experimental findings from article PMC5907831 (Journal of Molecular Cell Biology, 2017) are described below.

The test relates to SRP72. The test can be described thus: Binding ability of Flag-tagged SRP68 mutants from HCT116 cell lysate. The test is classed as cell-based, human. The settings on record: HCT116 cells; Flag-tagged SRP68 mutant from cell lysate.

B1: SRP68 F590L: cancer-associated SRP68 mutant (protein, UniProt Q9UHB9 1-627, looked up, variant F590L)
Signal recognition particle …: MAAEKQVPGGGGGGGSGGGGGSGGGGSGGGRGAGGEENKENERPSAGSKANKEFGDSLSLEILQIIKESQQQHGLRHGDFQRYRGYCSRRQRRLRKTLNFKMGNRHKFTGKKVTEELLTDNRYLLLVLMDAERAWSYAMQLKQEANTEPRKRFHLLSRLRKAVKHAEELERLCESNRVDAKTKLEAQAYTAYLSGMLRFEHQEWKAAIEAFNKCKTIYEKLASAFTEEQAVLYNQRVEEISPNIRYCAYNIGDQSAINELMQMRLRSGGTEGLLAEKLEALITQTRAKQAATMSEVEWRGRTVPVKIDKVRIFLLGLADNEAAIVQAESEETKERLFESMLSECRDAIQVVREELKPDQKQRDYILEGEPGKVSNLQYLHSYLTYIKLSTAIKRNENMAKGLQRALLQQQPEDDSKRSPRPQDLIRLYDIILQNLVELLQLPGLEEDKAFQKEIGLKTLVFKAYRCFFIAQSYVLVKKWSEALVLYDRVLKYANEVNSDAGAFKNSLKDLPDVQELITQVRSEKCSLQAAAILDANDAHQTETSSSQVKDNKPLVERFETFCLDPSLVTKQANLVHFPPGFQPIPCKPLLFDLALNHVAFPPLEDKLEQKTKSGLTGYIKGIFGFRS
On to B1, for which the “binding ability compared with wild-type (HCT116)” value was “severely compromised or abolished the binding ability”.
